Measurements reported in article PMC10543594.

How the values were obtained:
[1] = target: SARS-CoV-2 Alpha variant spike ectodomain fused to resistin (SARS-CoV-2 | human) (UniProt P0DTC2); assay: SEC-MALS
[2] = target: SARS-CoV-2 Delta spike ectodomain without trimerization domain (SARS-CoV-2) (UniProt P0DTC2)

Substance | stoichiometry N [1] | percent trimeric [2] [%]
SARS-CoV-2 Alpha variant spike ectodomain fused to resistin (from UniProt P0DTC2 14-1213) | 6 | –
SARS-CoV-2 Delta spike ectodomain without trimerization domain (from UniProt P0DTC2 14-1213) (domain or fragment) | – | 30 to 50
